Biological target: ACVR2B as used in surface plasmon resonance (UniProt Q13705)
Test: SPR; with 0.625 nM B09

Sequence of ACVR2B as used in surface plasmon resonance (Q13705 19-134): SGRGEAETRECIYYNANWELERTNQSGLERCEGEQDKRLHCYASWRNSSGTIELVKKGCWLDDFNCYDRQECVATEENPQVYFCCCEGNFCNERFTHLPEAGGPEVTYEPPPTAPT

water-soluble DLK1 treated together with the B09 antibody (from UniProt P80370 25-302)
Kd: 4.07E-10 ?
